This note sets out measurements from patent US20200087373A1 (UNIVERSITY OF COPENHAGEN, published 2020).

In this assay the target is T1, human GIP receptor (human, UniProt P48546 22-466).
T1 sequence (looked up): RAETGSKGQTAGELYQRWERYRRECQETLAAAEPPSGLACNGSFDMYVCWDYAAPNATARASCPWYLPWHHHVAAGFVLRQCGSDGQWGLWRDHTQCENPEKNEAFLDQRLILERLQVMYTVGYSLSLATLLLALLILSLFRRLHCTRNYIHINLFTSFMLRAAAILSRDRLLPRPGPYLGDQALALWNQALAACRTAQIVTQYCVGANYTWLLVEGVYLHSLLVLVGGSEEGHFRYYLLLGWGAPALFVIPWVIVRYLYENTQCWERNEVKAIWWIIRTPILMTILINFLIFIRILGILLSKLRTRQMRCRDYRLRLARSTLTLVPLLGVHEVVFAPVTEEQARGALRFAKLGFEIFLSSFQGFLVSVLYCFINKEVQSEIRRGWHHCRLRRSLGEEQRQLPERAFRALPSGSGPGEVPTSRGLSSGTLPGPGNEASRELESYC
Briefly: cell-based or functional assay.

Ends that are not written are not given here. * marks the point of attachment. C16 diacid = O=C(O)CCCCCCCCCCCCCCC(=O)*

B1: AT316 [hGIP(3-30)NH2[L27K]-C16diacid/27] (peptide)
peptide: EGTFISDYSIAMDKIHQQDFVNWLK(C16 diacid)AQK-NH2
modifications: N-terminus assumed
SMILES: CC[C@H](C)[C@H](NC(=O)[C@H](CO)NC(=O)[C@H](Cc1ccc(O)cc1)NC(=O)[C@H](CC(=O)O)NC(=O)[C@H](CO)NC(=O)[C@@H](NC(=O)[C@H](Cc1ccccc1)NC(=O)[C@@H](NC(=O)CNC(=O)[C@@H](N)CCC(=O)O)[C@@H](C)O)[C@@H](C)CC)C(=O)N[C@@H](C)C(=O)N[C@@H](CCSC)C(=O)N[C@@H](CC(=O)O)C(=O)N[C@@H](CCCCN)C(=O)N[C@H](C(=O)N[C@@H](Cc1c[nH]cn1)C(=O)N[C@@H](CCC(N)=O)C(=O)N[C@@H](CCC(N)=O)C(=O)N[C@@H](CC(=O)O)C(=O)N[C@@H](Cc1ccccc1)C(=O)N[C@H](C(=O)N[C@@H](CC(N)=O)C(=O)N[C@@H](Cc1c[nH]c2ccccc12)C(=O)N[C@@H](CC(C)C)C(=O)N[C@@H](CCCCNC(=O)CCCCCCCCCCCCCCC(=O)O)C(=O)N[C@@H](C)C(=O)N[C@@H](CCC(N)=O)C(=O)N[C@@H](CCCCN)C(N)=O)C(C)C)[C@@H](C)CC
Take B1: the “cAMP agonism, EC50 (log)” value is -6.5 log M; the “cAMP agonism, Emax” value was determined as 6.2%; the “cAMP agonism, nM (EC50)” value is 294 nM; the “cAMP antagonism, log (IC50)” value was -6.2 log M. Besides, the “cAMP antagonism, nM (IC50)” value was 649 nM.

B2: AT318 [hGIP(3-30)NH2[Q29K]-C16diacid/29] (peptide)
peptide: EGTFISDYSIAMDKIHQQDFVNWLLAK(C16 diacid)K-NH2
modifications: N-terminus assumed
SMILES: CC[C@H](C)[C@H](NC(=O)[C@H](CO)NC(=O)[C@H](Cc1ccc(O)cc1)NC(=O)[C@H](CC(=O)O)NC(=O)[C@H](CO)NC(=O)[C@@H](NC(=O)[C@H](Cc1ccccc1)NC(=O)[C@@H](NC(=O)CNC(=O)[C@@H](N)CCC(=O)O)[C@@H](C)O)[C@@H](C)CC)C(=O)N[C@@H](C)C(=O)N[C@@H](CCSC)C(=O)N[C@@H](CC(=O)O)C(=O)N[C@@H](CCCCN)C(=O)N[C@H](C(=O)N[C@@H](Cc1c[nH]cn1)C(=O)N[C@@H](CCC(N)=O)C(=O)N[C@@H](CCC(N)=O)C(=O)N[C@@H](CC(=O)O)C(=O)N[C@@H](Cc1ccccc1)C(=O)N[C@H](C(=O)N[C@@H](CC(N)=O)C(=O)N[C@@H](Cc1c[nH]c2ccccc12)C(=O)N[C@@H](CC(C)C)C(=O)N[C@@H](CC(C)C)C(=O)N[C@@H](C)C(=O)N[C@@H](CCCCNC(=O)CCCCCCCCCCCCCCC(=O)O)C(=O)N[C@@H](CCCCN)C(N)=O)C(C)C)[C@@H](C)CC
On to B2, for which the “cAMP agonism, EC50 (log)” value is -6.9 log M; the “cAMP agonism, Emax” value worked out at 10.8%; the “cAMP agonism, nM (EC50)” value stood at 131 nM; the “cAMP antagonism, log (IC50)” value was -6.6 log M. In addition, the “cAMP antagonism, nM (IC50)” value came to 224 nM.

B3: AT317 [hGIP(3-30)NH2[A28K]-C16diacid/28] (peptide)
peptide: EGTFISDYSIAMDKIHQQDFVNWLLK(C16 diacid)QK-NH2
modifications: N-terminus assumed
SMILES: CC[C@H](C)[C@H](NC(=O)[C@H](CO)NC(=O)[C@H](Cc1ccc(O)cc1)NC(=O)[C@H](CC(=O)O)NC(=O)[C@H](CO)NC(=O)[C@@H](NC(=O)[C@H](Cc1ccccc1)NC(=O)[C@@H](NC(=O)CNC(=O)[C@@H](N)CCC(=O)O)[C@@H](C)O)[C@@H](C)CC)C(=O)N[C@@H](C)C(=O)N[C@@H](CCSC)C(=O)N[C@@H](CC(=O)O)C(=O)N[C@@H](CCCCN)C(=O)N[C@H](C(=O)N[C@@H](Cc1c[nH]cn1)C(=O)N[C@@H](CCC(N)=O)C(=O)N[C@@H](CCC(N)=O)C(=O)N[C@@H](CC(=O)O)C(=O)N[C@@H](Cc1ccccc1)C(=O)N[C@H](C(=O)N[C@@H](CC(N)=O)C(=O)N[C@@H](Cc1c[nH]c2ccccc12)C(=O)N[C@@H](CC(C)C)C(=O)N[C@@H](CC(C)C)C(=O)N[C@@H](CCCCNC(=O)CCCCCCCCCCCCCCC(=O)O)C(=O)N[C@@H](CCC(N)=O)C(=O)N[C@@H](CCCCN)C(N)=O)C(C)C)[C@@H](C)CC
On to B3, for which the “cAMP agonism, EC50 (log)” value was -7.2 log M; the “cAMP agonism, Emax” value was 21.8%; the “cAMP agonism, nM (EC50)” value is 62 nM; the “cAMP antagonism, log (IC50)” value was -6.6 log M. The “cAMP antagonism, nM (IC50)” value came out at 228 nM.

B4: AT314 [hGIP(3-30)NH2[W25K]-C16diacid/25] (peptide)
peptide: EGTFISDYSIAMDKIHQQDFVNK(C16 diacid)LLAQK-NH2
modifications: N-terminus assumed
SMILES: CC[C@H](C)[C@H](NC(=O)[C@H](CO)NC(=O)[C@H](Cc1ccc(O)cc1)NC(=O)[C@H](CC(=O)O)NC(=O)[C@H](CO)NC(=O)[C@@H](NC(=O)[C@H](Cc1ccccc1)NC(=O)[C@@H](NC(=O)CNC(=O)[C@@H](N)CCC(=O)O)[C@@H](C)O)[C@@H](C)CC)C(=O)N[C@@H](C)C(=O)N[C@@H](CCSC)C(=O)N[C@@H](CC(=O)O)C(=O)N[C@@H](CCCCN)C(=O)N[C@H](C(=O)N[C@@H](Cc1c[nH]cn1)C(=O)N[C@@H](CCC(N)=O)C(=O)N[C@@H](CCC(N)=O)C(=O)N[C@@H](CC(=O)O)C(=O)N[C@@H](Cc1ccccc1)C(=O)N[C@H](C(=O)N[C@@H](CC(N)=O)C(=O)N[C@@H](CCCCNC(=O)CCCCCCCCCCCCCCC(=O)O)C(=O)N[C@@H](CC(C)C)C(=O)N[C@@H](CC(C)C)C(=O)N[C@@H](C)C(=O)N[C@@H](CCC(N)=O)C(=O)N[C@@H](CCCCN)C(N)=O)C(C)C)[C@@H](C)CC
With B4, the “cAMP agonism, EC50 (log)” value was -7.2 log M; the “cAMP agonism, Emax” value was 28.4%; the “cAMP agonism, nM (EC50)” value was found to be 62 nM; the “cAMP antagonism, log (IC50)” value was -7 log M. Moreover, the “cAMP antagonism, nM (IC50)” value came to 101 nM.

B5: AT315 [hGIP(3-30)NH2[L26K]-C16diacid/26] (peptide)
peptide: EGTFISDYSIAMDKIHQQDFVNWK(C16 diacid)LAQK-NH2
modifications: N-terminus assumed
SMILES: CC[C@H](C)[C@H](NC(=O)[C@H](CO)NC(=O)[C@H](Cc1ccc(O)cc1)NC(=O)[C@H](CC(=O)O)NC(=O)[C@H](CO)NC(=O)[C@@H](NC(=O)[C@H](Cc1ccccc1)NC(=O)[C@@H](NC(=O)CNC(=O)[C@@H](N)CCC(=O)O)[C@@H](C)O)[C@@H](C)CC)C(=O)N[C@@H](C)C(=O)N[C@@H](CCSC)C(=O)N[C@@H](CC(=O)O)C(=O)N[C@@H](CCCCN)C(=O)N[C@H](C(=O)N[C@@H](Cc1c[nH]cn1)C(=O)N[C@@H](CCC(N)=O)C(=O)N[C@@H](CCC(N)=O)C(=O)N[C@@H](CC(=O)O)C(=O)N[C@@H](Cc1ccccc1)C(=O)N[C@H](C(=O)N[C@@H](CC(N)=O)C(=O)N[C@@H](Cc1c[nH]c2ccccc12)C(=O)N[C@@H](CCCCNC(=O)CCCCCCCCCCCCCCC(=O)O)C(=O)N[C@@H](CC(C)C)C(=O)N[C@@H](C)C(=O)N[C@@H](CCC(N)=O)C(=O)N[C@@H](CCCCN)C(N)=O)C(C)C)[C@@H](C)CC
For B5, the “cAMP agonism, EC50 (log)” value is -6.7 log M; the “cAMP agonism, Emax” value worked out at 5.9%; the “cAMP agonism, nM (EC50)” value was 183 nM; the “cAMP antagonism, log (IC50)” value is -6.3 log M. The “cAMP antagonism, nM (IC50)” value came out at 556 nM.
